One data set relates to Ddl6. As to the kind of experiment: PK/LDH-coupled spectrophotometric assay, […] nm. It is filed as biochemical. The settings on record: 10 mM MgCl2, 10 mM KCl, 100 mM HEPES pH 7.5, 37 °C.
The next data set deals with C[C@@H](N)C(=O)O. Nature of the data set: purified protein. To be noted: second D-alanine binding, 500 µM ATP, 10 mM MgCl2, 10 mM KCl, 100 mM HEPES pH 7.5, 37 °C.
Data set [1] has as its system Nc1ncnc2c1ncn2[C@@H]1O[C@H](COP(=O)(O)OP(=O)(O)OP(=O)(O)O)[C@@H](O)[C@H]1O. As to the kind of experiment: purified protein. To be noted: 100 mM D-alanine, ATP 5-320 µM, 10 mM MgCl2, 10 mM KCl, 100 mM HEPES pH 7.5, 37 °C.

Read-outs that look alike come from different tables or passages of the source.

Consider `Nc1ncnc2c1ncn2[C@@H]1O[C@H](COP(=O)(O)OP(=O)(O)OP(=O)(O)O)[C@@H](O)[C@H]1O` [ATP], for which the Km in the data set with Ddl6 (read-out: Km, ATP, 100 mM D-alanine, ATP 5-320 µM) was found to be 55 µM.
Regarding `C[C@@H](N)C(=O)O` [D-alanine], the Km in the data set on Ddl6 (second D-alanine binding, 500 µM ATP, read-out: Km, D-ala2) was 390 µM.
As to DdlAEc (Escherichia coli K-12), in the data set on C[C@@H](N)C(=O)O, the Km was 520 µM, the kcat is 6.43 s⁻¹ and the kcat/Km was 12500 M⁻¹ s⁻¹. The Km in data set [1] came to 48.99 µM.
For DdlTd (Treponema denticola ATCC 35405), in that order: 450 µM, 3.74 s⁻¹, 8290 M⁻¹ s⁻¹ and 19.08 µM.

(Values after publication PMC7691350, “Integron gene cassettes harboring novel variants of D-alanine-D-alanine ligase confer high-level resistance to D-cycloserine” (Scientific Reports, 2020).)
